The results in this text go back to patent US20230035798A1 (CAPELLA BIOSCIENCE, published 2023).

For the test, the target named is T1, human LIGHT (TNFSF14), full length, membrane-bound (214E allele) (human, UniProt O43557 1-240).
T1 construct: also called membrane LIGHT; human membrane LIGHT
Kind of test: flow cytometry, HEK293FF human LIGHT cells (value given in the method).

T1 sequence (O43557 whole entry K214E): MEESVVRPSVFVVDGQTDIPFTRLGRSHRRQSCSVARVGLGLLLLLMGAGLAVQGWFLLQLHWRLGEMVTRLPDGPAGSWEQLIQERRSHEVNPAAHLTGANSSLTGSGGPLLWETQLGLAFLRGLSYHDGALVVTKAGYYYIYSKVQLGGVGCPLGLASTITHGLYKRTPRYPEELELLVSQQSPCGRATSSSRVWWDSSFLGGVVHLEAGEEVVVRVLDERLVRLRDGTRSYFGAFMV

B1: HVEM-Fc (Fc fusion, UniProt Q92956 37-202, looked up)
chain: PALPSCKEDEYPVGSECCPKCSPGYRVKEACGELTGTVCEPCPPGTYIAHLNGLSKCLQCQMCDPAMGLRASRNCSRTENAVCGCSPGHFCIVQDGDHCAACRAYATSSPGQRVQKGGTESQDTLCQNCPPGTFSPNGTLEECQHQTKCSWLVTKAGAGTSSSHWV
modifications: biotinylated (EZ-Link NHS-LC-Biotin) in the competition assays
notes: also called biotin-HVEM-Fc; biotinylated HVEM-Fc; not shown: Fc part of the bought fusion protein
One may read the EC50 as the concentration giving half of the maximal effect. B1: a half-maximal effect (EC50) was put at 45 nM. In other words, the double-digit nanomolar range.
